Source: US11352401

The binders below were run against T1, HLA-B*07 (human) (assay: UV peptide-exchange ELISA; ++ = yield >20%).
T1 construct: MHC monomer made peptide-receptive by UV cleavage of a UV-sensitive ligand; also called peptide-receptive MHC class I monomer
Source text: (§1) Candidate peptides for T cell based therapies according to the present invention were further tested for their MHC binding capacity (affinity). The individual peptide-MHC complexes were produced by UV-ligand exchange, where a UV-sensitive peptide is cleaved upon UV-irradiation, and exchanged with the peptide of interest as analyzed. Only peptide candidates that can effectively bind and stabilize the peptide-receptive MHC molecules prevent dissociation of the MHC complexes. To determine the yield of the exchange reaction, an ELISA was performed based on the detection of the light chain (β2m) of stabilized MHC complexes. The assay was performed as generally described in Rodenko et al. (Rodenko et al., 2006).
(§2) 96 well MAXISorp plates (NUNC) were coated over night with 2 ug/ml streptavidin in PBS at room temperature, washed 4× and blocked for 1 h at 37° C. in 2% BSA containing blocking buffer. […] Peptide-MHC monomers of the UV-exchange reaction were diluted 100-fold in blocking buffer. Samples were incubated for 1 h at 37° C., washed four times, incubated with 2 ug/ml HRP conjugated anti-β2m for 1h at 37° C., washed again and detected with TMB solution that is stopped with […]. Absorption was measured at 450 nm.

| Binder | peptide exchange yield [%] |
| --- | --- |
| MPLLWLRGF [MPLLWLRGF (SEQ ID NO: 273)] | 20 to 50 |
| HPELVNHIVF [HPELVNHIVF (SEQ ID NO: 267)] | 20 to 50 |

These binders were tested against T2, HLA-B*44 (human) (assay: UV peptide-exchange ELISA; ++ = yield >20%).
T2 construct: MHC monomer made peptide-receptive by UV cleavage of a UV-sensitive ligand; also called peptide-receptive MHC class I monomer
Source text: as §1, §2

| Binder | peptide exchange yield [%] |
| --- | --- |
| TEFPIIKMY [TEFPIIKMY (SEQ ID NO: 488)] | 20 to 50 |
| GEVSGLTKDF [GEVSGLTKDF (SEQ ID NO: 480)] | 20 to 50 |
| AEDEPAAAHL [AEDEPAAAHL (SEQ ID NO: 334)] | 20 to 50 |
| GEFPVRVQV [GEFPVRVQV (SEQ ID NO: 368)] | 20 to 50 |
| AENLFRAF [AENLFRAF (SEQ ID NO: 366)] | 20 to 50 |
| GELALKKKI [GELALKKKI (SEQ ID NO: 371)] | 20 to 50 |
| SDMVRFHLF [SDMVRFHLF (SEQ ID NO: 355)] | 20 to 50 |
| KELEATKQY [KELEATKQY (SEQ ID NO: 335)] | 20 to 50 |
| QEQDVDLVQKY [QEQDVDLVQKY (SEQ ID NO: 325)] | 20 to 50 |
| KEVDPAGHSY [KEVDPAGHSY (SEQ ID NO: 322)] | 20 to 50 |
| TEFTTVLY [TEFTTVLY (SEQ ID NO: 343)] | 20 to 50 |
| ASSSGPMRWW [ASSSGPMRWW (SEQ ID NO: 336)] | 20 to 50 |
| MEVPVIKI [MEVPVIKI (SEQ ID NO: 332)] | 20 to 50 |
| TEGIIMKDF [TEGIIMKDF (SEQ ID NO: 372)] | 20 to 50 |
| AEEEIMKKI [AEEEIMKKI (SEQ ID NO: 476)] | 20 to 50 |

These binders were tested against T2, HLA-B*44 (assay: UV peptide-exchange ELISA; ++++ = yield >75%).

| Binder | peptide exchange yield [%] |
| --- | --- |
| KEADIHFLI [KEADIHFLI (SEQ ID NO: 358)] | > 75 |
| FEYDFLLQRI (also called FEYDFLLORI) [FEYDFLLQRI (SEQ ID NO: 328)] | > 75 |
| IEFIHPQAF [IEFIHPQAF (SEQ ID NO: 345)] | > 75 |
| TENRYCVQL [TENRYCVQL (SEQ ID NO: 337)] | > 75 |
| NEVLTYIKF [NEVLTYIKF (SEQ ID NO: 352)] | > 75 |
| SENLFFASF [SENLFFASF (SEQ ID NO: 361)] | > 75 |
| DELFSIALY [DELFSIALY (SEQ ID NO: 359)] | > 75 |
| VEAPGPVHVYW [VEAPGPVHVYW (SEQ ID NO: 346)] | > 75 |
| AEVGFVRFF [AEVGFVRFF (SEQ ID NO: 484)] | > 75 |
| SEMNVNMKY [SEMNVNMKY (SEQ ID NO: 365)] | > 75 |
| SEIGKAVGF [SEIGKAVGF (SEQ ID NO: 489)] | > 75 |
| SEPALLHSW [SEPALLHSW (SEQ ID NO: 339)] | > 75 |
| GEIIMQNNW [GEIIMQNNW (SEQ ID NO: 353)] | > 75 |
